Tests used:
[1] = target: FcγIIb (UniProt P31994); assay: reverse ELISA: PAP-IC without peptide on FcγIIb-coated plate
[2] = target: FcγIIa (R131 allele) (UniProt P12318); assay: reverse ELISA: PAP-IC without peptide on FcγIIa (R131)-coated plate
[3] = target: recombinant TNF-α (Sigma-Aldrich); assay: reverse ELISA: PAP-IC without peptide on TNF-α-coated plate
[4] = target: FcγIIIa (UniProt P08637); assay: reverse ELISA: PAP-IC without peptide on FcγIIIa-coated plate

Sequence of recombinant TNF-α (Sigma-Aldrich) (P01375 77-233): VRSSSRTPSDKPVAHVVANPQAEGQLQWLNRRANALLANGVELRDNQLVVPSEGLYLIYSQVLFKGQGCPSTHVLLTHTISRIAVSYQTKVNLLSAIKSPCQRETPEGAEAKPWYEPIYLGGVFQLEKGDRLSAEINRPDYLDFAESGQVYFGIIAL

## peroxidase-rabbit anti-peroxidase IgG immune complex (PAP complex) (from UniProt P00433 31-338)
[1]
  OD405: 1.39 OD405
[2]
  OD405: 1.6 OD405
[3]
  OD405: 3.18 OD405
[4]
  OD405: 1.59 OD405
